For orientation: stoichiometry N means a count of units in the complex or per binding partner.

Stoichiometry N data for 1 substance are collected here from publication PMC12299999.

This assay has as its target HA-Foldon (HA1-521 fused at the C-terminus to the bacteriophage T4 fibritin trimerization motif) (influenza A or B virus (strain not stated for this experiment) | bacteriophage T4). The experiment in a line: native gel or EMSA. A general note: Mobility shift assays separate free from complexed probe on a gel.

For “HA-Foldon (HA1-521 fused at the C-terminus to the bacteriophage T4 fibritin trimerization motif)”, the stoichiometry N was found to be 3.
